Five molecules from PMC12482648, “G-quadruplex structural motifs modulate protein–RNA interactions within the transcriptome” can be followed below.

The target of series [1] is T1, FUS C-terminal RNA-binding module (His6-FUS) (UniProt P35637 269-526). Kind of series: EMSA; 150 mM KCl; EMSA: 1 uM RNA, 0/0.1/1/5 uM His6-FUS, 50 mM HEPES-KOH (or HEPES-LiOH) pH 7.4, 150 mM KCl (or LiCl), 200 ng BSA, 2 mM EDTA, 2 mM DTT, 5% glycerol, 30 min 30 C. The settings on record: protein: recombinant; tags: His6 (pET28a-TEV); label: none (SYBR Gold stain); none (non-G4).
T1 sequence (P35637 269-526): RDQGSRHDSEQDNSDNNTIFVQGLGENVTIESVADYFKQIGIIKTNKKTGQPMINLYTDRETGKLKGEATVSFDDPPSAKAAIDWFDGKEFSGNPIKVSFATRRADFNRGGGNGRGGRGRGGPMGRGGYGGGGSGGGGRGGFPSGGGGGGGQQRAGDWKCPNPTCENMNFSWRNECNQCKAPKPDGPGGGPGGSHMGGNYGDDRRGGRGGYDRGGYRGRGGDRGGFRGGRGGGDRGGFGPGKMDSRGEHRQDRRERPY

The target in series [2] is T1, FUS C-terminal RNA-binding module …. Kind of series: EMSA; 150 mM KCl; supershift with anti-His; EMSA: 1 uM RNA, 0/0.1/1/5 uM His6-FUS, 50 mM HEPES-KOH (or HEPES-LiOH) pH 7.4, 150 mM KCl (or LiCl), 200 ng BSA, 2 mM EDTA, 2 mM DTT, 5% glycerol, 30 min 30 C. The settings on record: protein: recombinant, tags: His6 (pET28a-TEV), label: none (SYBR Gold stain).

Consider AGUGUGAGUGUGUGUGUGCAGUGAGUGU (ssRNA) [28RPL23A mutant], for which the binding result in series [1] is reported as “no binding”.

With UGGUGCGCGGGUCCCGGGGAGGGGA (structured_RNA) [25COPS9 WT], the binding result in series [2] (G4 (in K+)) was “binds”.

With UUAGGGUUAGGGUUAGGGUUAGGG (structured_RNA) [TERRA WT], in series [2] (intramolecular G4 (in K+)), the binding result is given as “binds”.

In the case of UGUUGCGCGUGUCCCGUGGAGUGGA (ssRNA) [25COPS9 mutant], the binding result in series [1] was “no binding”.

Turning to AGGGGGAGGGUGUGGGGGCAGUGAGGGU (structured_RNA) [28RPL23A WT], the binding result in series [2] (intramolecular G4 (in K+)) was “binds”.
